Experimental data published in patent US20180312588A1 (KITE PHARMA, published 2018).

T1: human CD19 (on Raji cells, CD19+ homo sapiens Burkitt's lymphoma) (human, UniProt P15391 20-556)
T1 construct: whole, on cells; also called B-lymphocyte antigen CD19; B4
T1 sequence (looked up): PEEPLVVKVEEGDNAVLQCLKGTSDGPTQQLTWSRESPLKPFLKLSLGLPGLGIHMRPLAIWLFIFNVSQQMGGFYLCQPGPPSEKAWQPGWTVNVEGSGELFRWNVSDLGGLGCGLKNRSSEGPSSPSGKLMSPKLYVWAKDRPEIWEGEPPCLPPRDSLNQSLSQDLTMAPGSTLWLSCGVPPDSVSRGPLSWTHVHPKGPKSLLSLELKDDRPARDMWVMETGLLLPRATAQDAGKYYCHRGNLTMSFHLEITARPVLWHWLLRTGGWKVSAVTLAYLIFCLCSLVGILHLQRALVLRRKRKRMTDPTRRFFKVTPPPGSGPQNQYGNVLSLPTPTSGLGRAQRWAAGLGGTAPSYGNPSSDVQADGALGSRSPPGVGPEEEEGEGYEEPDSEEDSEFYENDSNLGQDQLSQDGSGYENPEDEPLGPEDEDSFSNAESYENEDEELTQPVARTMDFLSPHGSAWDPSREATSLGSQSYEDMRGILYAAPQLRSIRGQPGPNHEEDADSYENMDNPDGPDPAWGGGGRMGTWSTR


What was measured:
[1] = molecular target: T1, human CD19 (on Raji cells, CD19+ homo …); test: flow cytometry titration on Raji cells, anti-His FITC; scFv at log(nM) 1.091515
Protocol: (§1) In brief, Raji cells were cultured and harvested by centrifugation. About 3×10⁵ cells per well were washed with PBS twice and incubated in 200 μl of serial dilutions of scFvs for 30 minutes at 4° C. After washing with PBS, secondary antibody (5 μg/ml His Tag antibody [FITC]) was added to the cells and incubated for 30 minutes at 4° C. After washing with PBS, cells were analyzed for binding EC50 by using FACSCalibur™ and FlowJo software.

[2] = molecular target: T1, human CD19 (on Raji cells, CD19+ homo …); test: flow cytometry titration on Raji cells, anti-His FITC; scFv at log(nM) 2.045758
Protocol: as §1

[3] = molecular target: T1, human CD19 (on Raji cells, CD19+ homo …); test: flow cytometry titration on Raji cells, anti-His FITC
Protocol: as §1

[4] = molecular target: T1, human CD19 (on Raji cells, CD19+ homo …); test: flow cytometry titration on Raji cells, anti-His FITC; scFv at log(nM) 3.477121
Protocol: as §1

[5] = molecular target: T1, human CD19 (on Raji cells, CD19+ homo …); test: flow cytometry titration on Raji cells, anti-His FITC; scFv at log(nM) 1.568636
Protocol: as §1

[6] = molecular target: T1, human CD19 (on Raji cells, CD19+ homo …); test: flow cytometry titration on Raji cells, anti-His FITC; scFv at log(nM) 0.614394
Protocol: as §1

[7] = molecular target: T1, human CD19 (on Raji cells, CD19+ homo …); test: flow cytometry titration on Raji cells, anti-His FITC; scFv at log(nM) 3
Protocol: as §1

[8] = molecular target: T1, human CD19 (on Raji cells, CD19+ homo …); test: flow cytometry titration on Raji cells, anti-His FITC; scFv at log(nM) 0.137273
Protocol: as §1

[9] = molecular target: T1, human CD19 (on Raji cells, CD19+ homo …); test: flow cytometry titration on Raji cells, anti-His FITC; scFv at log(nM) 2.522879
Protocol: as §1

geometric mean (FACS titration) [1] | geometric mean (FACS titration) [2] | EC50 [3] [nM] | geometric mean (FACS titration) [4] | geometric mean (FACS titration) [5] | geometric mean (FACS titration) [6] | geometric mean (FACS titration) [7] | geometric mean (FACS titration) [8] | geometric mean (FACS titration) [9] | Binder
14.6 | 51.4 | 72.8 | 62 | 19.3 | 13.9 | 61.7 | 13.9 | 60.4 | SS-scFv (scFv, leader left out here) scFv: DIQMTQSPSFLSASVGDRVTITCRASQDISKYLNWYQQKPDQAPKLLIKHTSRLHSGVPSRFSGSGSGTDFTFTISSLQPEDIATYYCQQGNTLPYTFGQGTKLEIKGSTSGSGKPGSGEGSTKGEVQLVESGGGLVQPGRSLRLSCTASGVSLPDYGVSWVRQPPGKGLEWIGVIWGSETTYYNSALKSRFTISRDNSKNTLYLQMNSLRAEDTAVYYCAKHYYYGGSYAMDYWGQGTLVTVSSHHHHHH
13.6 | 46.6 | 66 | 60.2 | 25.7 | 13.3 | 59.7 | 13.4 | 58.9 | JS-scFv (scFv, leader left out here) scFv: DIQMTQSPSSLSASVGDRVTITCRASQDISKYLNWYQQKPDQAPKLLIKHTSRLHSGVPSRFSGSGSGTDYTLTISSLQPEDFATYYCQQGNTLPYTFGQGTKLEIKGSTSGSGKPGSGEGSTKGEVQLVESGGGLVQPGRSLRLSCTASGVSLPDYGVSWIRQPPGKGLEWIGVIWGSETTYYNSALKSRFTISRDNSKNTLYLQMNSLRAEDTAVYYCAKHYYYGGSYAMDYWGQGTLVTVSSHHHHHH
15.1 | 56.3 | 34 | 60.7 | 41.2 | 15.5 | 61.9 | 15.7 | 61.6 | NS-scFv (scFv, leader left out here) scFv: DIQMTQSPSSLSASVGDRVTITCRASQDISKYLNWYQQKPGKAVKLLIYHTSRLHSGVPSRFSGSGSGTDYTLTISSLQPEDIATYFCQQGNTLPYTFGGGTKLEIKGSTSGSGKPGSGEGSTKGQVQLQESGPGLVKPSETLSVTCTVSGVSLPDYGVSWIRQPPGKGLEWLGVIWGSETTYYNSALKSRLTISKDTSKNQVFLKMSSLTAADTAIYYCAKHYYYGGSYAMDYWGQGTLVTVSSHHHHHH
14.5 | 62.4 | 53.1 | 62.7 | 19.4 | 14 | 62.4 | 14.2 | 63.9 | AS-scFv (scFv, leader left out here) scFv: DIQMTQSPSTLSASVGDRVTITCRASQDISKYLNWYQQKPDQAPKLLIKHTSRLHSGVPSRFSGSGSGTDFTFTISSLQPEDIATYYCQQGNTLPYTFGQGTKLEIKGSTSGSGKPGSGEGSTKGQVQLQESGPGLVKPSGTLSLTCAVSGVSLPDYGVSWIRQPPGKGLEWIGVIWGSETTYYNSALKSRVTISRDNSKNTLYLQMNSLRAEDTAVYYCAKHYYYGGSYAMDYWGQGTLVTVSSHHHHHH
